PMC12823420 (2024)
Read-outs that look alike come from different tables or passages of the source. Where no end group is shown, it is not given here.

Assays:
[1] = molecular target: T1, UAP56 (human, UniProt Q13838 1-428)
[2] = molecular target: T1, UAP56; assay: AMP-PNP
[3] = molecular target: T1, UAP56; assay: RNA + AMP-PNP
[4] = molecular target: T1, UAP56; assay: RNA + AMP-PNP; remark: listed apart in the source
[5] = molecular target: T1, UAP56; assay: AMP-PNP; remark: listed apart in the source

B1: SARNP UCM-1 peptide, biotinylated (peptide)
chain: VDVAAEKKVVKITSEIPQTERMQKRAERFNVPVS
modifications: also: biotinylated, site not given here
koff [1]: 3.44 s⁻¹ | Kd [2]: 12 µM | Kd [3]: 13 µM | koff [4]: 2.67 s⁻¹

B2: SARNP UCM-4 peptide, biotinylated (peptide)
chain: SISRKSEDDEKLKKRKERFGIVTS
modifications: also: biotinylated, site not given here
koff [1]: 1.39 s⁻¹ | Kd [2]: 11 µM | koff [5]: 0.83 s⁻¹ | Kd [3]: 12 µM | koff [4]: 1.68 s⁻¹
